T1: human Trop2 on cells (human, UniProt P09758 27-323)
T1 construct: whole, on cells; also called hTrop2; 293T-human Trop2 cells
T1 sequence (looked up): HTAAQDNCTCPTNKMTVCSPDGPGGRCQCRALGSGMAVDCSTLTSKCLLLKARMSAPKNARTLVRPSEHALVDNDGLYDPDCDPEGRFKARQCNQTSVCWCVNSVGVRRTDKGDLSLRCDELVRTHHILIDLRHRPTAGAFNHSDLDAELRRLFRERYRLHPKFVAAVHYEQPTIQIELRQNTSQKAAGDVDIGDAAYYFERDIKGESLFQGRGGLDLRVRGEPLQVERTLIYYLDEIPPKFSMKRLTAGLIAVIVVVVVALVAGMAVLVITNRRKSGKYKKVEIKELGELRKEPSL

T2: monkey Trop2 on CHO-K1 cells (monkey, UniProt A0A2K5UE71 27-323)
T2 construct: also called CHO-K1/monkey Trop2
T2 sequence: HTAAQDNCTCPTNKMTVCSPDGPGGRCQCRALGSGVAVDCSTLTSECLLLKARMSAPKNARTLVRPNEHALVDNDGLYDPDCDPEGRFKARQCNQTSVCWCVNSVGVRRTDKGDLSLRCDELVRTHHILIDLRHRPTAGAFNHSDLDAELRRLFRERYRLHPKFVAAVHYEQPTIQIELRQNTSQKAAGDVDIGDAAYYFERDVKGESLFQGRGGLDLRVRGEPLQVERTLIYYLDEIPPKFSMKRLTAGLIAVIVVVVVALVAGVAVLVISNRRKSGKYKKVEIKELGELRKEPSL

T3: mouse Trop2-his protein (Sino Biological, #50922-M08H) (mouse, UniProt Q8BGV3 25-270)
T3 construct: bought protein; also called mouse Trop2 protein; not shown: his tag
T3 sequence (looked up): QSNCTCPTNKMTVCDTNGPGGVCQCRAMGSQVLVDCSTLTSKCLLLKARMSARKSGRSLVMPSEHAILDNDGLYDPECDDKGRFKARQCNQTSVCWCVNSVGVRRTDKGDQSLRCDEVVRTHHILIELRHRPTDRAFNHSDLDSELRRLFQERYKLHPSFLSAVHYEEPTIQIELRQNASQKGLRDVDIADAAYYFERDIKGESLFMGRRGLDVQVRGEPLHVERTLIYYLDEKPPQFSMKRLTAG


Key:
human Trop2 on cells [1] = molecular target: T1, human Trop2 on cells; test: flow cytometry on 293T-human Trop2 cells
Description: The cell density was determined, and the cells were resuspended to 1×10⁶ cells/mL in PBS. 100 μL of cell suspension was taken from each well and added to a 96 well V-bottom plate. The 96-well V-bottom plate was centrifuged at 1000 rpm for 5 min and washed once with PBS+0.5% BSA (VWR, #0332-100G). […] After 1 h, the cells were washed twice with PBS+0.5% BSA. The cells were incubated with 100 μL of Alexa Fluor 488 goat anti-human IgG (Life technologies, 1:1000, #A-11013) at 4° C. for 1 h in the dark, and washed twice with PBS+0.5% BSA. The cells were resuspended in 200 μL of PBS+0.5% BSA. The fluorescence intensity of the cells was analyzed using a FACS verse flow cytometer. All procedures were performed on ice.

human Trop2 on cells [2] = molecular target: T1, human Trop2 on cells; test: flow cytometry on BxPC-3 tumor cells
Description: BxPC-3 tumor cells (the Cell Bank of the Chinese Academy of Sciences, #TCHu 12) were digested with 3 mL of TrypLE, and the digestion was stopped with 7 mL of the corresponding medium. […] The cell solution was centrifuged, and the cells were washed once with PBS+[…] buffer. […] The cells were washed once with PBS+0.50% BSA. The cells were incubated at 4° C. for 1 h in the dark with 100 μL of Alexa Fluor 488 goat anti-human IgG (Life technologies, #A-11013) diluted at 1:1000, and washed twice with PBS+0.50% BSA. The cells were resuspended in 200 μL of PBS+0.50% BSA. The suspension was centrifuged at 4° C. for 5 min at 2000 rpm and tested using a FACS verse flow cytometer or NovoCyte flow cytometer (ACEA Biosciences). All procedures were performed on ice.

[3] = molecular target: T2, monkey Trop2 on CHO-K1 cells; test: flow cytometry on CHO-K1/monkey Trop2 cells
Description: CHO-K1/monkey Trop2 cells (Chempartner, Shanghai, China) and CHO-K1 blast cells were each digested with 3 mL of TrypLE, and the digestion was stopped with 7 mL of the corresponding medium. […] The cell solution was centrifuged, and the cells were washed once with PBS+0.5% BSA. […] The cells were washed once with PBS+0.5% BSA. The cells were incubated at 4° C. for 1 h in the dark with 100 μL of Alexa Fluor 488 goat anti-human IgG (Life technologies, #A-11013) diluted at 1:1000, and washed twice with PBS+0.5% BSA. The cells were resuspended in 200 μL of PBS+0.5% BSA. The suspension was centrifuged at 4° C. for 5 min at 2000 rpm and tested using a FACS verse flow cytometer or NovoCyte flow cytometer (ACEA Biosciences). All procedures were performed on ice.

[4] = molecular target: T3, mouse Trop2-his protein (Sino …); test: ELISA, plate coated with mouse Trop2-his protein, anti-human IgG (H+L)-HRP, OD450 nm
Description: An ELISA plate was coated with 100 μL of 1 μg/mL mouse Trop2-his protein (Sino Biological, #50922-M08H) in PBS at 4° C. overnight. The plate was blocked with 200 μL of PBST (PBS+0.05% tween 20)+2% BSA at 37° C. for 1 h. The plate was washed 4 times with PBST. 100 μL of Trop2 antibody diluted in a gradient (5-fold dilution, starting concentration: 33.33 nM) was added to the ELISA plate and the plate was incubated at 37° C. for 1 h. The plate was washed 4 times with PBST. 100 μL of anti-human IgG (H+L)-HRP (Sigma, #A8667) diluted in 1:4000 was added and the plate was incubated at 37° C. for 1 h. The plate was washed 4 times with PBST. 100 μL of TMB substrate (Invitrogen, #88-7025-88) was added and the plate was incubated at room temperature for 5 min, and then 50 μL of stop buffer (BBI life sciences, #E661006-0200) was added to stop the reaction. The OD450 nm reading was recorded using a microplate reader (Perkin Elmer, EnSpire).

| Binder | EC50 (human Trop2 on cells [1]) [nM] | Maximum (MFI) (human Trop2 on cells [1]) | EC50 (human Trop2 on cells [2]) [nM] | Maximum MFI value (human Trop2 on cells [2]) [MFI] | EC50 [3] [nM] | Maximum MFI value [3] [MFI] | Top % (human Trop2 on cells [1]) [%] | fold lower EC50 than the reference antibody hRS7 (human Trop2 on cells [1]) [fold] | fold lower EC50 than the reference antibody hRS7 (human Trop2 on cells [2]) [fold] | binding result [4] |
| --- | --- | --- | --- | --- | --- | --- | --- | --- | --- | --- |
| comparative example 2 antibody Tab (hRS7) (antibody, human IgG1, kappa, V domains shown, prepared on the basis of sacituzumab govitecan (ChemPartner, #T07-001); naked antibody) VH: QVQLQQSGSELKKPGASVKVSCKASGYTFTNYGMNWVKQAPGQGLKWMGWINTYTGEPTYTDDFKGRFAFSLDTSVSTAYLQISSLKADDTAVYFCARGGFGSSYWYFDVWGQGSLVTVSS VL: DIQLTQSPSSLSASVGDRVSITCKASQDVSIAVAWYQQKPGKAPKLLIYSASYRYTGVPDRFSGSGSGTDFTLTISSLQPEDFAVYYCQQHYITPLTFGAGTKVEIKR | 0.753 | 6480 | 2.08 | 8730 | 2.13 | 53100 | – | – | – | – |
| PR001130 (antibody, human IgG1, kappa, V domains shown, fully human IgG1/kappa; also called antibody No. (2)) VH: QVQLQESGPGLVKPSGTLSLTCAVSGDSISSHNWWSWVRQPPGKGLEWIGEIYHSGITSYNPSLKSRVTISVDKSKNQFSLKLNSVTAADTAMYYCARGSGVISYFDYWGQGTLVTVSS VL: DIQMTQSPSTLSASVGDRVTITCRASQSIGNWLAWYQQKPGKAPKLLIYKASSLESGVPSRFSGSGSGTEFTLTISSLQPDDFATYYCQQYDSYSPITFGQGTRLEIKR | 2.06 | 6820 | 3.85 | 9960 | 6.26 | 61700 | 105 | – | – | no binding |
| PR001133 (antibody, human IgG1, kappa, V domains shown, fully human IgG1/kappa; also called antibody No. (5)) VH: QVNLVESGGGVVQPGRSLKLSCAASGFTFSSYGMHWVRQAPGKGLEWVALIWSDGTNRYYTESVKGRFTISRDNSKNTLSLQMKSLRAEDTAVYYCAKDGWGTYGEYFQHWGQGTLVTVSS VL: DIQMTQSPSSLSASVGDRVTITCRASQNINSYLHWYQQKPGKAPKLLIYAASSLQSGVPSRFSGSGSGTDFTLTISSLQPEDFAIYYCQQSYSIPPITFGQGTRLEIKR | 0.995 | 7200 | 2.07 | 8950 | 2.87 | 55300 | 111 | – | – | no binding |
| PR001128 (antibody, human IgG1, kappa, V domains shown, fully human IgG1/kappa; also called antibody No. (1)) VH: QVQLQESGPGLVKPSGTLSLTCAVSGGSISSSNWWSWVRQPPGKGLEWIGEIFHSGTTYYNPSLKSRVTILVDKSKNQFSLKLSSVTAADTAVYYCARDNTKSWDHFDHWGQGTLVTVSS VL: EIVLTQSPATLSLSPGERATLSCRASQSVGSYLAWYQQKPGQAPSLLIYDASNRATGIPARFSGSGSGTDFTLTISSLEPEDFAVYYCQQRTNWYTFGQGTKLEIKR | 0.466 | 6850 | 1.7 | 8410 | 2.57 | 53200 | 106 | – | – | no binding |
| PR001165 (antibody, human IgG1, kappa, V domains shown, fully human IgG1/kappa; also called antibody No. (26)) VH: QVQLVESGGGVVQPGRSLRLSCEASGFTFSHYGMHWVRQAPGKGLEWVAVIWYDGIKTYYVESVKGRFTISRDNSKNTLNLQMNRLRAEDTAVYYCARDGGFGESNYYGLDVWGQGTTVTVSS VL: DIQLTQSPSFLSASVGDRVTITCRASQGISSYLGWYQQKPGKAPKLLIYIASTLQSGVPSRFSGSGSGTEFTLTISSLQPEDFATYYCQQLNSYPYTFGQGTKLEIKR | 0.414 | 6460 | – | – | – | – | 99.7 | – | – | no binding |

Now those with a lower EC50 (human Trop2 on cells [1]), led by results:

| EC50 (human Trop2 on cells [1]) [nM] | Maximum (MFI) (human Trop2 on cells [1]) | EC50 (human Trop2 on cells [2]) [nM] | Maximum MFI value (human Trop2 on cells [2]) [MFI] | EC50 [3] [nM] | Maximum MFI value [3] [MFI] | Top % (human Trop2 on cells [1]) [%] | fold lower EC50 than the reference antibody hRS7 (human Trop2 on cells [1]) [fold] | fold lower EC50 than the reference antibody hRS7 (human Trop2 on cells [2]) [fold] | binding result [4] | Binder |
| --- | --- | --- | --- | --- | --- | --- | --- | --- | --- | --- |
| 0.204 | 7050 | 0.716 | 8390 | 1.97 | 51500 | 109 | ~3 | ~2 | binds | PR001166 (antibody, human IgG1, kappa, V domains shown, fully human IgG1/kappa; also called antibody No. (27)) VH: QVQLQESGPGLVKPSETLSLTCAVSGYSISSGYFWAWIRQPPGKGLEWIGSIYHSGRTHYNPSLKSRVIISLDTSKNQFSLKLRSVTAADSAVYYCAREGYASGSYYWGQGTLVTVSS VL: EIVMTQSPATLSVSPGERATLSCRSSQSVNNYLAWFQQKPGQAPRLLIYDSSTRATGIPARFSGSGSGTEFTLTISSLQSEDFAFYFCQQYENWPLTFGGGTKVEIKR |
| 0.23 | 6510 | 1.15 | 10800 | 2.1 | 51200 | 101 | ~3 | ~2 | no binding | PR001142 (antibody, human IgG1, kappa, V domains shown, fully human IgG1/kappa; also called antibody No. (9)) VH: QVQLQESGPGLVKPSGTLSLTCAVSGDSISSNNWWSWVRQPPGKGLEWIGEIYPGGNPNYNPSLKSRVTISVDKSKNQFSLKLNSVTAADTAVYYCARGSGVISYFDYWGQGTLVTVSS VL: DIQMTQSPSTLSASVGDRVTITCRASQSIGHWLAWYQQKPGKAPKLLIYKASSLESGVPSRFRGSGSGTEFTLTISSLQPDDFATYYCQQYSSYSPITFGQGSRLEIKR |
| 0.158 | 5850 | 1.12 | 9110 | 2.25 | 45500 | 90.2 | ~3 | ~2 | no binding | PR001162 (antibody, human IgG1, kappa, V domains shown, fully human IgG1/kappa; also called antibody No. (23)) VH: QVQLVESGGGVVQPGTSLRLSCVASGFTFSNDGMHWVRQAPGMGLEWVAIMWFDGGSKYYADSVKGRFTISRDNSKNTLYLQMNNLRAEDTAVYYCARDHPHYLGSGSFDYWGQGTLVTVSS VL: EIVLTQSPATLSLSPGERATLSCRASQSVSSYLAWYQQKPGQAPRLLIYDASNRATGIPARFSGSGSGTDFTLTISSLQAEDVAVYYCQQYYSTPYTFGQGTKLEIKR |
| 0.325 | 6850 | 3.15 | 9360 | 3.33 | 46400 | 106 | – | – | binds | PR001139 (antibody, human IgG1, kappa, V domains shown, fully human IgG1/kappa; also called antibody No. (8)) VH: QVQLVESGGGVVQPGRSLRLSCAASGFTFSSFGMQWVRQGPGKGLEWVAVMWFDGSNKYYVDSVKGRFTISRDNSKNTLYLQMNSLRAEDTAVYYCARLDFSGWPLIDYWGQGTLVTVSS VL: not shown |

— US20240067748A1 (NONA BIOSCIENCES SUZHOU, published 2024)
